Broadly, the Ki is the equilibrium dissociation constant of an inhibitor or competing ligand from its target. The low end stands for higher affinity, the high end for lower affinity.

Here are results for 5 molecules from patent US20210139548A1 (published 2021).

*1 amine or outer side, *2 acyl side, *3 side chain or, on linkers, in order; H or OH if unused. Side-chain parts run from the residue outwards. The star is where a group is joined. C18 diacid = O=C(O)CCCCCCCCCCCCCCCCC(=O)*; γGlu = O=C(O)[C@H](CCC(=O)[*:2])N[*:1]; Isovaleryl = CC(C)CC(=O)*; AEEA = NCCOCCOCC(=O)O

Sequences and labels used below:
T1: human neuropeptide Y2 receptor (human, UniProt P49146 1-381)
T1 construct: whole, on cells; also called hNPY2 receptor; hNPY2-R
T1 sequence (looked up): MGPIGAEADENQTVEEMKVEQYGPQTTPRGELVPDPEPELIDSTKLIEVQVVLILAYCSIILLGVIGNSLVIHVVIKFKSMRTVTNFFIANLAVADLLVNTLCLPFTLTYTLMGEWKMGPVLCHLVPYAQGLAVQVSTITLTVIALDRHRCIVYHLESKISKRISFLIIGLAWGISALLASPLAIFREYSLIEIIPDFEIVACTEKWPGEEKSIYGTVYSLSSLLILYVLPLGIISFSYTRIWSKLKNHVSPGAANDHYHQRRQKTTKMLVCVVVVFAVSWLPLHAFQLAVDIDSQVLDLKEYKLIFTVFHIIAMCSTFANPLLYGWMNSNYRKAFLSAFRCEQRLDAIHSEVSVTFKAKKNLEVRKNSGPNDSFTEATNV

B1: Compound 47 (peptide)
peptide: Isovaleryl-APEK([AEEA-AEEA-γGlu-C18 diacid])PPADASPEELQRYYVSLRHYYNWLTRQRY-NH2
SMILES: CC(C)CC(=O)N[C@@H](C)C(=O)N1CCC[C@H]1C(=O)N[C@@H](CCC(=O)O)C(=O)N[C@@H](CCCCNC(=O)COCCOCCNC(=O)COCCOCCNC(=O)CC[C@H](NC(=O)CCCCCCCCCCCCCCCCC(=O)O)C(=O)O)C(=O)N1CCC[C@H]1C(=O)N1CCC[C@H]1C(=O)N[C@@H](C)C(=O)N[C@@H](CC(=O)O)C(=O)N[C@@H](C)C(=O)N[C@@H](CO)C(=O)N1CCC[C@H]1C(=O)N[C@@H](CCC(=O)O)C(=O)N[C@@H](CCC(=O)O)C(=O)N[C@@H](CC(C)C)C(=O)N[C@@H](CCC(N)=O)C(=O)N[C@@H](CCCNC(=N)N)C(=O)N[C@@H](Cc1ccc(O)cc1)C(=O)N[C@@H](Cc1ccc(O)cc1)C(=O)N[C@H](C(=O)N[C@@H](CO)C(=O)N[C@@H](CC(C)C)C(=O)N[C@@H](CCCNC(=N)N)C(=O)N[C@@H](Cc1c[nH]cn1)C(=O)N[C@@H](Cc1ccc(O)cc1)C(=O)N[C@@H](Cc1ccc(O)cc1)C(=O)N[C@@H](CC(N)=O)C(=O)N[C@@H](Cc1c[nH]c2ccccc12)C(=O)N[C@@H](CC(C)C)C(=O)N[C@H](C(=O)N[C@@H](CCCNC(=N)N)C(=O)N[C@@H](CCC(N)=O)C(=O)N[C@@H](CCCNC(=N)N)C(=O)N[C@@H](Cc1ccc(O)cc1)C(N)=O)[C@@H](C)O)C(C)C
B2: Compound 48 (peptide)
peptide: Isovaleryl-APEK([AEEA-AEEA-γGlu-C18 diacid])PEEDTEPEELQRYYVSLRHYYNWLTRQRY-NH2
SMILES: CC(C)CC(=O)N[C@@H](C)C(=O)N1CCC[C@H]1C(=O)N[C@@H](CCC(=O)O)C(=O)N[C@@H](CCCCNC(=O)COCCOCCNC(=O)COCCOCCNC(=O)CC[C@H](NC(=O)CCCCCCCCCCCCCCCCC(=O)O)C(=O)O)C(=O)N1CCC[C@H]1C(=O)N[C@@H](CCC(=O)O)C(=O)N[C@@H](CCC(=O)O)C(=O)N[C@@H](CC(=O)O)C(=O)N[C@H](C(=O)N[C@@H](CCC(=O)O)C(=O)N1CCC[C@H]1C(=O)N[C@@H](CCC(=O)O)C(=O)N[C@@H](CCC(=O)O)C(=O)N[C@@H](CC(C)C)C(=O)N[C@@H](CCC(N)=O)C(=O)N[C@@H](CCCNC(=N)N)C(=O)N[C@@H](Cc1ccc(O)cc1)C(=O)N[C@@H](Cc1ccc(O)cc1)C(=O)N[C@H](C(=O)N[C@@H](CO)C(=O)N[C@@H](CC(C)C)C(=O)N[C@@H](CCCNC(=N)N)C(=O)N[C@@H](Cc1c[nH]cn1)C(=O)N[C@@H](Cc1ccc(O)cc1)C(=O)N[C@@H](Cc1ccc(O)cc1)C(=O)N[C@@H](CC(N)=O)C(=O)N[C@@H](Cc1c[nH]c2ccccc12)C(=O)N[C@@H](CC(C)C)C(=O)N[C@H](C(=O)N[C@@H](CCCNC(=N)N)C(=O)N[C@@H](CCC(N)=O)C(=O)N[C@@H](CCCNC(=N)N)C(=O)N[C@@H](Cc1ccc(O)cc1)C(N)=O)[C@@H](C)O)C(C)C)[C@@H](C)O
B3: Compound 52 (peptide)
peptide: Isovaleryl-APEK([AEEA-AEEA-γGlu-C18 diacid])AEEDASEEELQRYYVSLRHYYNWLTRQRY-NH2
SMILES: CC(C)CC(=O)N[C@@H](C)C(=O)N1CCC[C@H]1C(=O)N[C@@H](CCC(=O)O)C(=O)N[C@@H](CCCCNC(=O)COCCOCCNC(=O)COCCOCCNC(=O)CC[C@H](NC(=O)CCCCCCCCCCCCCCCCC(=O)O)C(=O)O)C(=O)N[C@@H](C)C(=O)N[C@@H](CCC(=O)O)C(=O)N[C@@H](CCC(=O)O)C(=O)N[C@@H](CC(=O)O)C(=O)N[C@@H](C)C(=O)N[C@@H](CO)C(=O)N[C@@H](CCC(=O)O)C(=O)N[C@@H](CCC(=O)O)C(=O)N[C@@H](CCC(=O)O)C(=O)N[C@@H](CC(C)C)C(=O)N[C@@H](CCC(N)=O)C(=O)N[C@@H](CCCNC(=N)N)C(=O)N[C@@H](Cc1ccc(O)cc1)C(=O)N[C@@H](Cc1ccc(O)cc1)C(=O)N[C@H](C(=O)N[C@@H](CO)C(=O)N[C@@H](CC(C)C)C(=O)N[C@@H](CCCNC(=N)N)C(=O)N[C@@H](Cc1c[nH]cn1)C(=O)N[C@@H](Cc1ccc(O)cc1)C(=O)N[C@@H](Cc1ccc(O)cc1)C(=O)N[C@@H](CC(N)=O)C(=O)N[C@@H](Cc1c[nH]c2ccccc12)C(=O)N[C@@H](CC(C)C)C(=O)N[C@H](C(=O)N[C@@H](CCCNC(=N)N)C(=O)N[C@@H](CCC(N)=O)C(=O)N[C@@H](CCCNC(=N)N)C(=O)N[C@@H](Cc1ccc(O)cc1)C(N)=O)[C@@H](C)O)C(C)C
B4: Compound 49 (peptide)
peptide: Isovaleryl-APEK([AEEA-AEEA-γGlu-C18 diacid])PEEDASPEELQQYYVELRHYYNWLTRQRY-NH2
SMILES: CC(C)CC(=O)N[C@@H](C)C(=O)N1CCC[C@H]1C(=O)N[C@@H](CCC(=O)O)C(=O)N[C@@H](CCCCNC(=O)COCCOCCNC(=O)COCCOCCNC(=O)CC[C@H](NC(=O)CCCCCCCCCCCCCCCCC(=O)O)C(=O)O)C(=O)N1CCC[C@H]1C(=O)N[C@@H](CCC(=O)O)C(=O)N[C@@H](CCC(=O)O)C(=O)N[C@@H](CC(=O)O)C(=O)N[C@@H](C)C(=O)N[C@@H](CO)C(=O)N1CCC[C@H]1C(=O)N[C@@H](CCC(=O)O)C(=O)N[C@@H](CCC(=O)O)C(=O)N[C@@H](CC(C)C)C(=O)N[C@@H](CCC(N)=O)C(=O)N[C@@H](CCC(N)=O)C(=O)N[C@@H](Cc1ccc(O)cc1)C(=O)N[C@@H](Cc1ccc(O)cc1)C(=O)N[C@H](C(=O)N[C@@H](CCC(=O)O)C(=O)N[C@@H](CC(C)C)C(=O)N[C@@H](CCCNC(=N)N)C(=O)N[C@@H](Cc1c[nH]cn1)C(=O)N[C@@H](Cc1ccc(O)cc1)C(=O)N[C@@H](Cc1ccc(O)cc1)C(=O)N[C@@H](CC(N)=O)C(=O)N[C@@H](Cc1c[nH]c2ccccc12)C(=O)N[C@@H](CC(C)C)C(=O)N[C@H](C(=O)N[C@@H](CCCNC(=N)N)C(=O)N[C@@H](CCC(N)=O)C(=O)N[C@@H](CCCNC(=N)N)C(=O)N[C@@H](Cc1ccc(O)cc1)C(N)=O)[C@@H](C)O)C(C)C
B5: Compound 51 (peptide)
peptide: Isovaleryl-APEK([AEEA-AEEA-γGlu-C18 diacid])AEEEASPEELQRYYVSLRHYYNWLTRQRY-NH2
SMILES: CC(C)CC(=O)N[C@@H](C)C(=O)N1CCC[C@H]1C(=O)N[C@@H](CCC(=O)O)C(=O)N[C@@H](CCCCNC(=O)COCCOCCNC(=O)COCCOCCNC(=O)CC[C@H](NC(=O)CCCCCCCCCCCCCCCCC(=O)O)C(=O)O)C(=O)N[C@@H](C)C(=O)N[C@@H](CCC(=O)O)C(=O)N[C@@H](CCC(=O)O)C(=O)N[C@@H](CCC(=O)O)C(=O)N[C@@H](C)C(=O)N[C@@H](CO)C(=O)N1CCC[C@H]1C(=O)N[C@@H](CCC(=O)O)C(=O)N[C@@H](CCC(=O)O)C(=O)N[C@@H](CC(C)C)C(=O)N[C@@H](CCC(N)=O)C(=O)N[C@@H](CCCNC(=N)N)C(=O)N[C@@H](Cc1ccc(O)cc1)C(=O)N[C@@H](Cc1ccc(O)cc1)C(=O)N[C@H](C(=O)N[C@@H](CO)C(=O)N[C@@H](CC(C)C)C(=O)N[C@@H](CCCNC(=N)N)C(=O)N[C@@H](Cc1c[nH]cn1)C(=O)N[C@@H](Cc1ccc(O)cc1)C(=O)N[C@@H](Cc1ccc(O)cc1)C(=O)N[C@@H](CC(N)=O)C(=O)N[C@@H](Cc1c[nH]c2ccccc12)C(=O)N[C@@H](CC(C)C)C(=O)N[C@H](C(=O)N[C@@H](CCCNC(=N)N)C(=O)N[C@@H](CCC(N)=O)C(=O)N[C@@H](CCCNC(=N)N)C(=O)N[C@@H](Cc1ccc(O)cc1)C(N)=O)[C@@H](C)O)C(C)C

The target of this assay is T1, human neuropeptide Y2 receptor. In words: radioligand competition (125I-PYY(1-36)), hNPY2R membranes. The method, boiled down:
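Commercial human Y2 receptor membranes (0.5 μg protein/well) were incubated with peptide for 2 h at room temperature in 50 mM HEPES, 5 mM MgCl₂, 1 mM CaCl₂, pH 7.4, with 0.2% ovalbumin. Bound radioligand was separated on PEI-soaked GF/C filters and counted by scintillation, and IC₅₀ came from nonlinear sigmoidal regression.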
Background: In a radioligand displacement assay an active substance lowers the binding of a labelled ligand.
The molecule B1 registered a Ki of 0.42 nM.

In turn, B2 came in with a Ki of 38.9 nM.

Regarding B3, the affinity, expressed as Ki, was 8.53 nM.

With B4, the affinity, expressed as Ki, was 0.89 nM.

For B5, the Ki is 39.4 nM.
